# Measured values published in article PMC6833485.
# B1: TBA 15-mer (5'-biotin) (structured_DNA)
# DNA: GGTTGGTGTGGTTGG
# modifications: 5'-biotin
# Biological target: thrombin (Homo sapiens, UniProt P00734;P00734 328-363;364-622)
# Assay: reflectometric interference spectroscopy (RIfS), immobilized aptamer; PBS + MgCl2; sigmoidal fit of dEOT; Binding buffer PBS + MgCl2 (concentration, pH not given); TBA preheated 95 °C 5 min, cooled to room temperature; flow cell, assay temperature not stated
binder,measurement,value
B1,Kd,900 nM
